Data reported in US20180364250.

Molecular target: ubiquitin-D77

B1: YUH1 (protein)
chain: MSGENRAVVPIESNPEVFTNFAHKLGLKNEWAYFDIYSLTEPELLAFLPRPVKAIVLLFPINEDRKSSTSQQITSSYDVIWFKQSVKNACGLYAILHSLSNNQSLLEPGSDLDNFLKSQSDTSSSKNRFDDVTTDQFVLNVIKENVQTFSTGQSEAPEATADTNLHYITYVEENGGIFELDGRNLSGPLYLGKSDPTATDLIEQELVRVRVASYMENANEEDVLNFAMLGLGPNWE
fluorescence intensity over time (real-time deubiquitinase assay with 500 nM ubiquitin-D77, 10 nM fluorescein-tagged ubiquitin, 10 nM tIVR): Activity of YUH1 released ubiquitin proteins from conjugation to aspartic acid (i.e., the D77 residue), and thus increased the concentration of free ubiquitin protein
